Source: doi:10.1101/2023.03.13.532366 (bioRxiv, 2023)
Blank lines part the entries; values can stand above or below the binder they belong to.

Legend:
[1] = target: hIL-12Rβ1_(D3-D5) (domains 3 to 5 of human IL-12 receptor β1) (human, UniProt P42701); assay: crystal structure
[2] = target: T1, biotinylated mIL-12Rβ2_(D1-D6)-Casp3-AviTag-His6 (mouse, UniProt P97378 24-637, biotin on the AviTag (in vitro biotinylation with BirA)); assay: BLI
T1 sequence (looked up): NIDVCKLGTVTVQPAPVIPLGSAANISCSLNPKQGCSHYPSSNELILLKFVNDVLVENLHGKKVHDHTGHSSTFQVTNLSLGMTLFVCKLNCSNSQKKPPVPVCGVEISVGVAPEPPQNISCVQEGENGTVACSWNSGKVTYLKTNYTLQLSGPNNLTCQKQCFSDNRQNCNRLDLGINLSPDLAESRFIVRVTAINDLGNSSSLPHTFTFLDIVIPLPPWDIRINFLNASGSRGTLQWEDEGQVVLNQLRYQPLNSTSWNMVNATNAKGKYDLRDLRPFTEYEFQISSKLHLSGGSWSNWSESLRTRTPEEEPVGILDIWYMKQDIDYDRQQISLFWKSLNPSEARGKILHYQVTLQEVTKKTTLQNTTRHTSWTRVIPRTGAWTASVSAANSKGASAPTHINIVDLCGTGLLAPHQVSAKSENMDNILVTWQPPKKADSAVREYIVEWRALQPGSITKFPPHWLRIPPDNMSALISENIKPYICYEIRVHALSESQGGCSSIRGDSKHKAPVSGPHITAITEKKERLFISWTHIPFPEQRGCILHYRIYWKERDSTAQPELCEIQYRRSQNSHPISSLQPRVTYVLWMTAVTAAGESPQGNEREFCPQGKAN

binding result [1]: binds
B1: Fab4 (wild-type; antigen-binding portion of an antagonistic anti-IL-12Rβ1 antibody) (Fab, V domains shown)
VH: QVQLVESGGGVVQPGRSLRLSCAASGFTFTSYGMSWVRQAPGKGLEWVAGISYDASDTEYADSVKGRFTISRDNSKNTLYLQMNSLRAEDTAVYYCARSPDYIIDYGFDYWGRGTLVTVSS
VL: AIQMTQSPSSLSASVGDRVTITCRASQGISSDLAWYQQKPGKAPKLLIYDASSLQSGVPSRFSGSGSGTDFTLTISSLQPEDFATYYCQQYWWYPFTFGQGTKVEIK

binding result [2]: binds
B2: mIL-12 (mIL-12a-AviTag-His6 and untagged mIL-12b), analyte in BLI (complex, mouse)
chain 1: RVIPVSGPARCLSQSRNLLKTTDDMVKTAREKLKHYSCTAEDIDHEDITRDQTSTLKTCLPLELHKNESCLATRETSSTTRGSCLPPQKTSLMMTLCLGSIYEDLKMYQTEFQAINAALQNHNHQQIILDKGMLVAIDELMQSLNHNGETLRQKPPVGEADPYRVKMKLCILLHAFSTRVVTINRVMGYLSSA
chain 2: MWELEKDVYVVEVDWTPDAPGETVNLTCDTPEEDDITWTSDQRHGVIGSGKTLTITVKEFLDAGQYTCHKGGETLSHSHLLLHKKENGIWSTEILKNFKNKTFLKCEAPNYSGRFTCSWLVQRNMDLKFNIKSSSSSPDSRAVTCGMASLSAEKVTLDQRDYEKYSVSCQEDVTCPTAEETLPIELALEARQQNKYENYSTSFFIRDIIKPDPPKNLQMKPLKNSQVEVSWEYPDSWSTPHSYFSLKFFVRIQRKKEKMKETEEGCNQKGAFLVEKTSTEVQCKGGNVCVQAQDRYYNSSCSKWACVPCRVRS
